# Data from the DeepSol protein solubility set.
# Test: soluble on expression in E. coli; label from the status in PepcDB or PDB records
row,Sequence,soluble on expression in E. coli
1,GPGSMENKDVATSWDYNSAEIGEFVPNSCTGTHFPNGIACAPWFQQQVTSQPHLCSSEFASSVESVGGPACRVGSEGSDYCFMNKSVCRNEEEGAEEVEGNEGESNLRWGMHIHPAALRAVQASSREVVQGLIRDKELLCSQFGTMQQNIPLAITWHDTTAPSPNQTLASTFTPLPHKKRSRDLVTLLSGISPDWEAAEEVGGASAAAHVGGLEIQRKRFRVDNPTIGSAAYEVSKAATAASPKPWIKARQKRVREEGDEDVNVNVEWGRGRDGNENSGR,soluble
2,MEYKPMPYPIIDSHCHLDFPKFNPDREEAIQRARKAGVVGMVNSGISLKGNRISLELAEKNEDIHAALGLSPDIGREGSDKDINAILAQIEANAGKAVAIGEAGLDFQDCKTDEERRRQTASFKKVIELAKNLEKPLVVHARMAEAEVLELARDVDTVIYHCYSGSVETMKEIVDAGYYISLATLVCFSEHHQTLAAEVPPENLLLETDSPFLSPRRGRNEPAFIVDSIPVVAEYKEMEPAEIAKFATENARRVFKILEHHHHHH,not soluble
3,MSLAEVSDLAKAIRMEKNLVKEYRDTIGGYFRRFHPEHFVLSRDEFAVEGRKITIESVLAYAFLRADLDFVSAQARKVDPEDMKGSDDAPVNNDEVFGHPSTPSGHGIGGPARFKGGSTASVALISTPTPAPFWHPAAQSTLLCAHVGDSRILLCDTATGLAQPLTSDHHPSSPTESRRLRRYAPAGSMVSGDSFGEERIAGLANSRAFGDMKSKRIGVSAEPELTRVEMGPAQYSFLVLMTDGISGTLSDQEIVDVVKEARTPEDGARNIVKYATEVSNDGDNATCQVVRLGGWERRSEGEGHHHHHH,not soluble
4,QIDYRDVFIEFLTTFKGNNNQNKYIERINELVAYRKKSLIIEFSDVLSFNENLAYEIINNTKIILPILEGALYDHILQLDPTYQRDIEKVHVRIVGIPRVIELRKIRSTDIGKLITIDGILVKVTPVKERIYKATYKHIHPDCMQEFEWPEDEEMPEVLEMPTICPKCGKPGQFRLIPEKTKLIDWQKAVIQERPEEVPSGQLPRQLEIILEDDLVDSARPGDRVKVTGILDIKQDSPVKRGSRAVFDIYMKVSSIEVSQKVLDEVIISEEDEKKIKDLAKDPWIRDRIISSIAPSIYGHWELKEALALALFGGVPKVLEDTRIRGDIHILIIGDPGTAKSQMLQFISRVAPRAVYTTGKGSTAAGLTAAVVREKGTGEYYLEAGALVLADGGIAVIDEIDKMRDEDRVAIHEAMEQQTVSIAKAGIVAKLNARAAVIAAGNPKFGRYISERPVSDNINLPPTILSRFDLIFILKDQPGEQDRELANYILDVHSGKSTKNIIDIDTLRKYIAYARKYVTPKITSEAKNLITDFFVEMRKKSSETPDSPILITPRQLEALIRISEAYAKMALKAEVTREDAERAINIMRLFLESVG,soluble
5,MQVSPHDTSQPKQHAQSLSSASQSEAGKYTDGRETSARWLDDDSIAQRDLWNFIGDELKMGIPDNARIREQKTRYLKNKSYLHDVTLRAEPYMYWIVEQIKQRKMPMELVLLPIVESAFDPSATSSANAAGLWQIIPGTGRNYGLKQNQWYDGRRDVIASTTAALDMMQRLNTMFDGDWLLTVAAYNSGEGRVMQAMKANKAKGKPTNFWALALPRETSIYVPKMLALSDILKNSKKYGVNLPQPNESRALAKVELGQQIELTQAAEMAGLSLNKLKSYNSGYKRNVTAPNGPHYIMVPKAHVEQLKDSLADGDIAAIQPTRLEQTPASQQYKVRSGDTLSAIATRLNVSTKDLQSWNNLRSVGALKVGQTLQVAKASGTNGSITYQVRKGDSLASIAKRHGVNIADVMRWNTVINKNANIQPGDRLTLYVSSNIKPDSLEHHHHHH,soluble
6,MSLARTNVMIAETFPEYLVDHNLIDCEVESLCNGMVRYEKRPARRRDGSVAEGLYNAWIIFNNPRQYNSYTTEMVKATILAFRRASVDREVNAVVFTGVGDKAFCTGGNTKEYAEYYAGNPQEYRQYMRLFNDMVSSILGCDRPVICRVNGMRIGGGQEIGMACDFSIAQDLAKFGQAGPKHGSAAIGGATDFLPIMIGCEQAMVSGTLCEPFSAHKAARLGIIADVVPALKVGGTFVANPTVVTDRFLDEYGRVVQGEFKTGADFKAGQARIKEGEVDLSLLDEKVEELCAKLLETFPECMTKSLEELRKPKLQAWNLNKENSRAWLALNMMNEARIGFRAFNEGTKETGREIDFVKLRRQLAEGTPWAEELIEEGHHHHHH,soluble
7,MRKIKLIAVVGPTAVGKTALGIELAKTFNGEIISGDSQQVYQKLDIGTAKASKEEQEQAYHHLIDVREVNENYSVYDFVKEAKVAIDTIISKGKIPIIVGGTGLYLQSLFEGYHLGGEVNQETLMAYREKLESLSDEDLFEKLTEQSIIIPQVNRRRAIRALELAKFGNDLQNSESPYDVLLIGLNDDRQVLYDRINRRVDLMMDNGLLDEAKWLYDNYPSVQASKGIGYKELFPYFSKQIPLEEAVDKLKQNTRRFAKRQLTWFRNRMNVEFIMVGEENYQQKIKRKVSDFLSSKLEHHHHHH,soluble
8,KPEPTNSSVEVSPDIYQQVRDELKRASVSQAVFARVAFNRTQGLLSEILRKEEDPRTASQSLLVNLRAMQNFLNLPEVERDRIYQDER,soluble
9,MLGERIMSKLSKGIKDQASGLRNLSRNKPVKVIAVSAGKGGVGKSNISVNLAIALSQLNYSVMLLDADLGLANVDIMLGLHTKYNLSHVLQGICHLSDIILHGPAGVRVIPAASGTEFMTQLSPAEHAGIIDSFNELTDDLDYMIIDTAAGISETVLSFTRSSQELIVVVCDEPTSLTDAYALIKVMSKRYEWTHFHILANMVRNVKDGRDLFNKLFRVSGQFLDVQLDYLGAIPFDENIHKSVKKQNPILIAYPDSPAAHALRELAESVSNWSFKPSLGGNTSFFLERLVAGQF,not soluble
10,EAAYSHTPLIMVSADRPERLHGTGANQTIEQRGIFNVVDTDHVVDITDLNSISFARNVIHINVALDVPLVDVLPEVGDPVERVREVIEVDHGEVVLNLNERILVVAGDEAWEVPGLEDVPTIAEPSAPAPYHPVHPLAAQIFAHKEIKPEHIVVVGHPTLHRAVLSLLADVPVTVLTKTDTITGNPQAVGSRVKVTGELDKRWLQICEDASTLCADRVKEVLEGH,not soluble
11,MGDDEARSWIRGDETAKQMLSRVLKDRAFLLIPPLHRVPLRAGNVVEITGASTSAKTQILIQAAISCILPKTWNGIHYGGLGKLVLFLDLDCRFDVLRLSQMLKHRLLQANWLGNGAWWQLEESNVKSCKSAEEKTKTVFDEELYASCMKRFLYVRCYDSLELLSSLKTLHYRIQQQEACGSQVGVLMIDSIGAFHWTDRLSSSLALETHNRKSLSLTNVVETIVQELKKLLLVHSLVVLATKGTIYEEKYPANENNRKVSSNDHFSGNVASKAQQPPFREFMPSSWQAFVTHKIIIRKSADYQSLQTGQQNLLAYSLEWLQPQLSRIDRFIVDDVRKLTTIKPFYSKLLLIYIVIPASSSHAVWYCHCLVT,soluble
12,MGSDKIHHHHHHMLPRLLDRCAGMVSHDWTALDRDLRRFLPKKSVVSKRQELLVYDCDGLTIDRHCPPLAVLPETTEEVSQILACCHRHSIPFVARGSGTGLSGGALVEQEALLVVTSRMRRILSMDLDNHTITVQPGVINSWVTRAVAGEGFYYAPDPSSQVVCSIGGNVAENSGGVHCLKYGVTSNHVLGLEVVLADGTVTLLGGGLPEHAELDLRGAFIGSEGTLGIATAITLRLLRAPQHVTVLLADFPTMESAGEAVCQVTAAGVLPAGMEIMDNFMINAVNDLFGFDEYPRDAAAVLLIELDGQAAEVTVAADQASGLCSKAGARTIRRAEEPADRALLWKGRKSAFAAVGQISPTYYVQDGVVPRSTLPRVLMAIERLSREYELPVANVFHAGDGNLHPLILYNADTPDVESRVRDLGSAILRECLDVGGSITGEHGVGADKRCYLDWMFAADDLSTMKLLRRAFDPDGRANPDKIFPTPKSCGESARRQVILTSEGLEMPSEAKAF,not soluble
13,MGSDKIHHHHHHMEMESPVRILFVIDQFSSPYAGTEGQLLQLISNLPADRFDPELLVLRSSDYVNEGNIPCKVHVLGSSKLFSMKTWLALFQFARRQKQAGTALCHVFFNDSSVLCPPVFGLVGIPTLISRRDMGYWYTRKYLWVLRRTAGFVRGVVANSEAVKRITVQKEGFSDADVSVIYNGYPEGDEELHPLIGEERQRYVETLGLPKSGRFVVLVANLRDIKRIGDAISAMARLTQTLPDTHLVLIGAGDQKPYRMLAEAVGNAGQVHFLGARSDVNNILRVMDVGLLCSESEGYSNAIVEYMQAKLPVVASDVGGNSEAVEHGVTGFLFPMGDVDQMAEQLATVLKGESRAVASMGEAGYKRAGHRHALHTMIEAHCGLYDRLLSGSDYSRSGLGVR,not soluble
